Test results published in patent publication US9480726B2, “Leukotoxin E/D as a new anti-inflammatory agent and microbicide” (New York University, priority 2011, dated 2016).

How the values were obtained:
[1] = tested on: CCR5^+ Jurkat cells; test: Blocking of LukE/D cytotoxicity by CCR5 antagonists, antibodies and ligands, CellTiter; format: cell-based, human; details: CCR5^+ Jurkat preincubated 30 minutes, then LukE/D, read 1 hour post-intoxication
Method: One hour post-intoxication, the viability of the cells was determined by CellTiter. […] One hour post-intoxication, the viability of the cells was determined by CellTiter. Results represent the average of triplicate samples±S.D.
To determine if targeting CCR5 blocks LukE/D, the effect of several CCR5 antagonist and ligands on the ability of LukE/D to kill CCR5^+ cells was evaluated. […] In addition, the potential of monoclonal antibodies directed against CCR5 to protect cells from LukE/D cytotoxicity was also evaluated following the experimental protocol described for the CCR5 antagonist. […] Lastly, the potential inhibitory effect of natural ligands of CCR5 was also evaluated. […] Collectively, these findings indicate that the potent cytotoxic activity of LukE/D could be blocked by employing CCR5 antagonist and/or ligands.

[2] = tested on: primary human dendritic cells; test: LukE/D cytotoxicity towards primary phagocytes, percent death by flow cytometry; details: 1 hour post-intoxication
Method: (§1) Cells were then stained with an anti-CCR5 antibody and a viability dye prior analysis by flow cytometry. […] One hour post-intoxication, the percent death was determined by flow cytometry.
(§2) In addition to T lymphocytes, the cytotoxic activity of LukE/D towards primary human macrophages and dendritic cells was also evaluated.

[3] = tested on: primary human macrophages; test: as above; details: 1 hour post-intoxication
Method: as §1, §2

[4] = tested on: CCR5^+ Jurkat; test: LukE/D cytotoxicity towards CCR5-transduced cells, CellTiter; format: cell-based, human; details: Jurkat transduced with CCR5 cDNA, 1 hour post-intoxication
Source text: FIG. 3 illustrates that the chemokine receptor CCR5 is necessary and sufficient to renders mammalian cells susceptible to LukE/D mediated cytotoxicity. Parental Jurkat (top, left) and GHOST cells (bottom, left) or these cells transduced with a CCR5 cDNA (Jurkat CCR5^+, top/right; GHOST CCR5^+, bottom/right), were intoxicated with LukE, LukD, or equimolar mixture of LukE+LukD (LukE/D). One hour post-intoxication cell viability was monitored with CellTiter, where cells treated with medium were set at 100% viable. Results represent the average of triplicate samples±S.D.
To directly determine the contribution of CCR5 for the ability of LukE/D to target and kill host cells, CCR5 was introduced into Jurkat cells by viral transduction of the CCR5 cDNA resulting in CCR5^+ Jurkat. Jurkat and CCR5^+ Jurkat cells were subsequently intoxicated with different concentrations of either individual subunits (i.e., LukE or LukD) or equimolar mixtures of LukE+LukD (LukE/D).

[5] = tested on: parental CCR5^− Jurkat cells; test: Binding of GFP-fused LukE/D toxin to plasma membrane, flow cytometry; parameters: species or system human
Method: (§6) To elucidate the mechanism by which LukE/D utilizes CCR5 to target and kill host cells, Jurkat (CCR5^−) and CCR5^+ Jurkat (CCR5^+) cells were incubated with a GFP-fused LukE/D toxin (^GFPLukE/D) and binding of the fluorescent toxin to the plasma membrane of the cells monitored by flow cytometry.

[6] = tested on: T lymphocytes from the Δ32CCR5 donor; test: LukE/D intoxication of primary T lymphocytes, viability by flow cytometry; details: T lymphocytes of Δ32CCR5 (CCR5^−) donor
Method: as §1
(§3) If CCR5 is the receptor of LukE/D, then primary host cells that their surfaces are decorated with CCR5 (e.g., T lymphocytes, macrophages, natural killer cells, dendritic cells, etc.) will be susceptible to LukE/D mediated cell death. To investigate this in more detail, primary human peripheral blood mononuclear cells (PBMC) were isolated from a wild type CCR5 (CCR5^+) donor and a Δ32CCR5 (CCR5^−) donor and the T lymphocytes expanded followed by intoxication with LukE/D and the viability of the cells determined by flow cytometry.

[7] = tested on: CCR5^+ Jurkat cells; test: LukE/D pore formation, ethidium bromide incorporation and microscopy; format: cell-based, human
Method: Binding of the toxin to the plasma membrane of the cells was monitored via flow cytometry. […] Pore formation was measured over-time by monitoring ethidium bromide incorporation. […] Intoxicated cells were monitored by light (top panels) and by fluorescence microscopy to determine ethidium bromide uptake. Representative images are shown.

[8] = tested on: Hut cells (T lymphocyte-like cells); test: LukE/D cytotoxicity, cell viability by CellTiter; format: cell-based, human; details: Hut cells (over-express CCR5), 1 hour post-intoxication
Method: (§4) Cytotoxicity was determined by a cell viability assay where indicated human immune cells lines were intoxicated with different concentrations of an equimolar mixture of LukE+LukD (LukE/D). Cell viability was monitored 1 hour post-intoxication using CellTiter, where cells treated with medium were set at 100% viable. Results represent the average of triplicate samples±S.D. FIG. 2B depicts that LukE/D kills Hut cell but not other human T lymphocyte-like cell lines. Indicated cell lines were intoxicated with different concentrations of an equimolar mixture of LukE+LukD (LukE/D) and cell viability monitored as in FIG. 2A. Results represent the average of triplicate samples±S.D.
(§5) One mechanism by which LukE/D could be blocked is by inhibiting the interaction of the toxin with its receptor. As an initial strategy to understand how LukE/D interact with host cells, a collection of human immune cell lines were incubated (“intoxicated”) with different concentrations of either individual subunits (i.e., LukE or LukD) or an equimolar mixture of LukE+LukD (LukE/D). […] Upon further investigation, it was discovered that the Hut cells employed the experiments described above have been engineered to over-express the CC-chemokine receptor 5 (CCR5), a receptor for the chemokines MIP-1α, MIP-1β, and RANTES.

[9] = tested on: Jurkat cells; test: LukE/D cytotoxicity, cell viability by CellTiter; format: cell-based, human; details: 1 hour post-intoxication
Method: as §4, §5

[10] = tested on: PM1; test: LukE/D cytotoxicity, cell viability by CellTiter; format: cell-based, human; details: PM1 lymphocyte cell line
Method: as §4, §5

[11] = tested on: H9; test: LukE/D cytotoxicity, cell viability by CellTiter; format: cell-based, human; details: H9 lymphocyte cell line
Method: as §4, §5

[12] = tested on: THP1 cells (human monocytes); test: LukE/D cytotoxicity, cell viability by CellTiter; format: cell-based; details: 1 hour post-intoxication
Method: as §4, §5

[13] = tested on: CCR5^+ Jurkat cells; test: Binding of GFP-fused LukE/D toxin to plasma membrane, flow cytometry; parameters: species or system human
Method: as §6

[14] = tested on: Primary human T lymphocytes from CCR5^+ donor; test: LukE/D intoxication of primary T lymphocytes, viability by flow cytometry; format: cell-based; details: 5.4% in media treated cells
Method: as §1, §3

Cc1ccc(-c2ccc3c(c2)C=C(C(=O)Nc2ccc(C[N+](C)(C)C4CCOCC4)cc2)CCC3)cc1.[Cl-] [TAK-779] was tested, and the “blocking of LukE/D mediated cytotoxicity” value [1] was “potently blocked”.

For COC[C@@H](c1ccc(C(F)(F)F)cc1)N1CCN(C2(C)CCN(C(=O)c3c(C)ncnc3C)CC2)C[C@@H]1C [Vicriviroc], the “blocking of LukE/D mediated cytotoxicity” value [1] was “potently blocked”.

With “LukD: S. aureus Leukocidin D protein subunit, SEQ ID NOs: 12-22” the “cytotoxic activity (killing)” value [2] was “not LukD potently killed” and the “cytotoxic activity (killing)” value [3] was “not LukD potently killed”.

With LukE/D the LukE/D mediated toxicity [4] was “susceptible”, the “binding of toxin to plasma membrane” value [5] was “not to the parental CCR5^− Jurkat cells” and the LukE/D mediated cytotoxicity [6] was “highly refractory”. The “pore formation in plasma membrane” value ([7]; ethidium bromide incorporation over time) was “forms pores”, the cell swelling ([7]; light and fluorescence microscopy) was “associated with cell swelling” and the cytotoxicity [8] was “exhibits cytotoxicity”. The cytotoxicity [9] was “not towards Jurkat cells”, the cytotoxicity [10] was “only the Hut cells were susceptible” and the cytotoxicity [11] was “only the Hut cells were susceptible”. The cytotoxicity [12] was “exhibits cytotoxicity”, the “binding of toxin to plasma membrane” value ([13]; GFP-fused LukE/D, CCR5^+ Jurkat) was “binds” and the “cytotoxic activity (killing)” value [2] was “potently killed”. For the same molecule, the “cytotoxic activity (killing)” value [3] was “potently killed” and the cell death [14] was 34%.

Maraviroc [reference compound] was tested, and the “blocking of LukE/D mediated pore formation” value ([7]; pre-incubation with Maraviroc, ethidium bromide incorporation) was “potently blocked”, the “blocking of LukE/D cell swelling” value ([7]; pre-incubation with Maraviroc, microscopy) was “fully blocked” and the “inhibition of LukE/D binding to cells” value ([13]; CCR5^+ Jurkat pre-incubated with Maraviroc, then GFP-labeled LukE/D) was “potently inhibited”.

With “RANTES: natural ligand (chemokine) of CCR5” the “blocking of LukE/D mediated cytotoxicity” value [1] was “potently inhibit”.

B1: MIP-1β: natural ligand (chemokine) of CCR5 (protein)
chain: APMGSDPPTACCFSYTARKLPRNFVVDYYETSSLCSQPAVVFQTKRSKQVCADPSESWVQEYVYDLELN
In the case of B1, the “blocking of LukE/D mediated cytotoxicity” value [1] is reported as “potently inhibit”.
